Test results reported in paper PMC7948927.

Columns and labels:
Test in all cases: MST
[1] = target: OGG1 S292N S292N (Homo sapiens) (UniProt O15527); details: saturation not reached; N at position 11 of strand 1 = THF (tetrahydrofuran abasic site analog), opposite C; MST: 100 nM labeled duplex, 0.0185-3.28 uM protein, 10 mM Na phosphate pH 7.5, 7% glycerol; temperature not stated
[2] = target: OGG1 R161W R161W (Homo sapiens) (UniProt O15527); details: saturation not reached; N at position 11 of strand 1 = THF (tetrahydrofuran abasic site analog), opposite C; MST: 100 nM labeled duplex, 0.0185-3.28 uM protein, 10 mM Na phosphate pH 7.5, 7% glycerol; temperature not stated
OGG1 R161W R161W (Homo sapiens), sequence (O15527 whole entry R161W): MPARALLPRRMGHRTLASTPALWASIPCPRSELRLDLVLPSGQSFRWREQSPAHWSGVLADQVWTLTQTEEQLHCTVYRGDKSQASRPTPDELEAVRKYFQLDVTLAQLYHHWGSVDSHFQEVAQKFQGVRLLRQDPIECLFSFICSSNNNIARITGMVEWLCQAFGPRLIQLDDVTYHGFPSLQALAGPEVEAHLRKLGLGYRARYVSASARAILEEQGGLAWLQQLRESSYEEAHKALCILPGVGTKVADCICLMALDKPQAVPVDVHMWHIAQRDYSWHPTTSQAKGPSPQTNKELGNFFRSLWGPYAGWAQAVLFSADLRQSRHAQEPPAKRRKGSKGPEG

OGG1 WT (Homo sapiens) = OGG1 WT (Homo sapiens) (UniProt O15527); details: N at position 11 of strand 1 = THF (tetrahydrofuran abasic site analog), opposite C; MST: 100 nM labeled duplex, 0.0185-3.28 uM protein, 10 mM Na phosphate pH 7.5, 7% glycerol; temperature not stated
OGG1 WT (Homo sapiens), sequence (O15527 whole entry): as the sequence (O15527 whole entry R161W) above, with W161R counted along it

[3] = target: OGG1 I145M I145M (Homo sapiens) (UniProt O15527); details: saturation not reached; N at position 11 of strand 1 = THF (tetrahydrofuran abasic site analog), opposite C; MST: 100 nM labeled duplex, 0.0185-3.28 uM protein, 10 mM Na phosphate pH 7.5, 7% glycerol; temperature not stated
OGG1 I145M I145M (Homo sapiens), sequence (O15527 whole entry I145M): as the sequence (O15527 whole entry R161W) above, with I145M, W161R counted along it

OGG1 S292N S292N (Homo sapiens), sequence (O15527 whole entry S292N): as the sequence (O15527 whole entry R161W) above, with W161R, S292N counted along it

CTCTCCCTTCNCTCCTTTCCTCT / AGAGGAAAGGAGCGAAGGGAGAG [THF:C duplex]
Kd [1]: 1390 nM
Kd [2]: 1060 nM
Kd (OGG1 WT (Homo sapiens)): 140 nM
Kd [3]: 900 nM
